Values quoted from earlier work, collected in article PMC3361719.

Target: p67phox SH3 (Homo sapiens) (UniProt P19878)
Sequence of UniProt P19878 (P19878 457-516): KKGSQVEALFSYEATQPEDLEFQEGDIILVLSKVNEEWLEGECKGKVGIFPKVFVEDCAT

Kd: 20 nM
Substance: p47phox PRR and 368-390 (from UniProt P14598)
